{"source": "paper PMC2806950", "origin": "cited, not measured here", "target": "EcoKI R/M enzyme (Escherichia coli) (UniProt P08956)", "sequence (P08956 whole entry, chain 1 of 3)": "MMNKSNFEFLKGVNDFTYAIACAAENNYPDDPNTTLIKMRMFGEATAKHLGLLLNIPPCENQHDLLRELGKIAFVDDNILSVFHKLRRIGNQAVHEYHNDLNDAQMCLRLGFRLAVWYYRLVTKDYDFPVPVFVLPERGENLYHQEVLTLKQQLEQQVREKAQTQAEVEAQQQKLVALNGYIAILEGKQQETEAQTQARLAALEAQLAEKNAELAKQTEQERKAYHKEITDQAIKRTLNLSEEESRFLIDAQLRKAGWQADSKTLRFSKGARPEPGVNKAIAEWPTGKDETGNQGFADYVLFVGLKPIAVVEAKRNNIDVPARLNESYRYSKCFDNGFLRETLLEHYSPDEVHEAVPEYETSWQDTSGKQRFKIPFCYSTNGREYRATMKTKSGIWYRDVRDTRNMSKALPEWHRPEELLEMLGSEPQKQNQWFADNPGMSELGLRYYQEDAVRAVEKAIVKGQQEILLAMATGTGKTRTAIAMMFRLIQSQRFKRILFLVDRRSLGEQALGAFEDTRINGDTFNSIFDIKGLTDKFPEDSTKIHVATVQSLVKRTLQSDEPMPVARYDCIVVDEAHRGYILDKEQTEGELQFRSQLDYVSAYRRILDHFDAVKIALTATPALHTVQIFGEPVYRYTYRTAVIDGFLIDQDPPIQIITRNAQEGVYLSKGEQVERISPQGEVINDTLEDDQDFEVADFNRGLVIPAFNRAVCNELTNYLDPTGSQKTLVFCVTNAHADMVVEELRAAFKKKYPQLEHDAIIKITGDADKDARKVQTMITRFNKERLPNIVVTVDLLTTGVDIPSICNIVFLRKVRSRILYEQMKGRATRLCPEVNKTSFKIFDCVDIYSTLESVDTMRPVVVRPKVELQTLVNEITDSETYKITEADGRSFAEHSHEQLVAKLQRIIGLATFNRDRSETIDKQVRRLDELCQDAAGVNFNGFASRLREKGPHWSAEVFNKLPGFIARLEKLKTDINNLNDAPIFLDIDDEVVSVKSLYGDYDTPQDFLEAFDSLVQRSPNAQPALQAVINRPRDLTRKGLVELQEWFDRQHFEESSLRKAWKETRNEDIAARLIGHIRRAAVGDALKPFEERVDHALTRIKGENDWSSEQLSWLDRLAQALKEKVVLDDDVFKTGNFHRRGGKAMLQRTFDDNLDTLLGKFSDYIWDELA", "sequence (P08957 whole entry, chain 2 of 3, further chain)": "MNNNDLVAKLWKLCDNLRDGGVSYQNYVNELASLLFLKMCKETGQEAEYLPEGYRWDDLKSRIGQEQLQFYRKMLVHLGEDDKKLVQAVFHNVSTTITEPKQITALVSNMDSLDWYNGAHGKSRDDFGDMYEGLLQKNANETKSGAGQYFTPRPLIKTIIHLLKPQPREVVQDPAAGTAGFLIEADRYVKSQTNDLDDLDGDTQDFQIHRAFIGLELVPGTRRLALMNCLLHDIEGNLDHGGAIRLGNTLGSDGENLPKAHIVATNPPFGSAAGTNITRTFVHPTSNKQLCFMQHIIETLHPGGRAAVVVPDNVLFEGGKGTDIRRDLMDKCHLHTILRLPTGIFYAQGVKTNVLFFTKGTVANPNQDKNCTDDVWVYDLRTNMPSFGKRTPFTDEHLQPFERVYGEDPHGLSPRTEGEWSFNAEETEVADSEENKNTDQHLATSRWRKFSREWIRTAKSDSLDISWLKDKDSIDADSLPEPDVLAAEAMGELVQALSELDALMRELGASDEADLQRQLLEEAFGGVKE", "sequence (P05719 2-464, chain 3 of 3, further chain)": "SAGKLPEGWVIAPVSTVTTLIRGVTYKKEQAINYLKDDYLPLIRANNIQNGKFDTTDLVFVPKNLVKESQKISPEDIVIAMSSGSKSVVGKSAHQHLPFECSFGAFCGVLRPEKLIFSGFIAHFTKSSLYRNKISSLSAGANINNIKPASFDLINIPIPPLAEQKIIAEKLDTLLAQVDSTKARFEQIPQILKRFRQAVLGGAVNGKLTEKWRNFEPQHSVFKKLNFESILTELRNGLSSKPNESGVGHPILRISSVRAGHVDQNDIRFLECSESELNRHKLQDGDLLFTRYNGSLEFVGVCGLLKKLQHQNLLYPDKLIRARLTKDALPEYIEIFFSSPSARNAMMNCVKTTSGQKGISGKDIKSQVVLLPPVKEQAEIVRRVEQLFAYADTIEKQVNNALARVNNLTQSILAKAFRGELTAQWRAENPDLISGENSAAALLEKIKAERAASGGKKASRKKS", "assay": "given as Ka", "data": [{"substance": "Ocr (from UniProt P03775)", "values": [{"measurement": "Kd", "result": 0.05, "unit": "nM"}]}]}
